Assay results reported in patent publication US20090203610A1, “METHODS OF TREATING OBESITY OR DIABETES USING NT-4/5” (RINAT NEUROSCIENCE CORPORATION, priority 2004, published 2009).

Assays:
db/db mice [1] = test: Serum nonesterified fatty acids (NEFA) in db/db mice (Example 1); assay type: in vivo
Method: (§1) A difference was considered significant for p<0.05.
Serum nonesterified fatty acids (NEFA) levels were determined by calorimetric method using a non esterified fatty acids kit (ref. FA 15, Randox, France).

db/db mice [2] = test: HbA1c in db/db mice (Example 1); assay type: in vivo
Method: as §1
HbA1c levels were determined using an HbA1c kit (ref. 650262, Beckman Coulter, France) and a Synchron CX4 synchronizer. HbA1c is an indicator for blood glucose control over the last 2-3 months. The normal level of HbA1c in C57BL/6J mouse (determined by measuring 8 normal healthy C57BL/6J mice) was about 3.5%.

db/db mice [3] = test: Body weight of db/db mice (Example 1); assay type: in vivo; conditions: for body weight, mean / body weight expressed as % of baseline, mean: NT-4/5 20 mg/kg s.c., Rosiglitazone 3 mg/kg p.o.
Method: (§2) Throughout the experiment period (T1-T26), daily individual body weights as well as food intake per cage were measured.

db/db mice [4] = test: Serum transaminase (AST, ALT) activity in db/db mice (Example 1)
Method: Test animals: 24 female 10-12 weeks old db/db mice (C57BL/Ks J Rj-db/db, Janvier, France), weighing in the target range of 40-50 g, were used in this study. These mice were housed in a temperature (19.5-24.5° C.) and relative humidity (45-65%) controlled room with a 12-hour light/dark cycle, with ad libitum access to filtered tap-water and irradiated pelleted laboratory chow (SAFE, France) throughout the study. Upon receipt at animal facilities, they were housed 4 per cage covered with filtered caps and at least a 5-day acclimation period was observed.
(§3) The mice were divided into three groups of 8 mice each (groups 1-3). Each group was treated with vehicle (PBS) subcutaneously (s.c.), 3 mg/kg Rosiglitazone orally (p.o.), or 20 mg/kg NT-4/5 subcutaneously (s.c.). From day 1 to day 5 (T1-T5) and then from day 8 to day 12 (T8-T12), the mice in groups 2 and 3 were dosed once daily for 5 consecutive days, with a volume of 10 ml/kg.
Collection of samples for analysis: One day before beginning the treatment (T0), non fasted db/db mice were weighed and blood samples were collected through the retro-orbital plexus (about 300 μL/mouse) under isoflurane anesthesia. Similarly, at day 5 (T5), day 12 (T12), day 19 (T19) and day 26 (T26), two hours after the last administration, blood samples were collected through the retro-orbital plexus under isoflurane anesthesia in non fasted mice.
(§4) Analysis of blood samples in db/db mice: Pre- and post dose serum levels of glucose, HbA1c, cholesterol and triglycerides, insulin, and non esterified fatty acids (NEFA), as well as aspirate amino-transferase (AST) and alanine amino-transferase activities (ALT) activities, were determined at different time points, as described further herein. At each time point and for each parameter, a mean % of the effect was calculated according to the following formula: ((T final−T initial)/T initial)*100. Statistical analysis was consistent in a one-way analysis of variance followed by multiple comparisons versus the vehicle group (Dunnett's test) on final values. In case the equal variance test fails, a Kruskall-Wallis one-way analysis of variance on ranks was conducted. A difference was considered significant for p<0.05.
Aspartate amino-transferase (AST) and alanine amino-transferase (ALT) activities were determined with an AST kit (ref. 442665, Beckman Coulter, France), an ALT kit (ref. 442620, Beckman Coulter, France), using a Synchron CX4 analyzer.

db/db mice [5] = test: Blood insulin level by ELISA in db/db mice (Example 1); assay type: in vivo; parameters: blood insulin level at T5 / blood insulin level at T12 / blood insulin level at T19 / blood insulin level at T26: unit not given here
Method: as §1
The blood insulin level was determined by ELISA using an Insulin ELIT Plus kit (ref. INSRAT01-8N, Eurobio, France).

db/db mice [6] = test: Food intake of db/db mice (Example 1); assay type: in vivo; conditions: for food intake, mean: NT-4/5 20 mg/kg s.c., Rosiglitazone 3 mg/kg p.o.
Method: as §2

db/db mice [7] = test: Blood triglyceride levels in db/db mice (Example 1); assay type: in vivo
Method: Test animals: 24 female 10-12 weeks old db/db mice (C57BL/Ks J Rj-db/db, Janvier, France), weighing in the target range of 40-50 g, were used in this study. […] Upon receipt at animal facilities, they were housed 4 per cage covered with filtered caps and at least a 5-day acclimation period was observed.
as §3
Collection of samples for analysis: One day before beginning the treatment (T0), non fasted db/db mice were weighed and blood samples were collected through the retro-orbital plexus (about 300 μL/mouse) under isoflurane anesthesia. Similarly, at day 5 (T5), day 12 (T12), day 19 (T19) and day 26 (T26), two hours after the last administration, blood samples were collected through the retro-orbital plexus under isoflurane anesthesia in non fasted mice. […] An aliquot of serum was used for measuring glucose levels, the remaining was frozen until use.
as §4

db/db mice [8] = test: Total blood cholesterol levels in db/db mice (Example 1); assay type: in vivo
Method: as §1
The blood triglyceride level and the total blood cholesterol level were determined with a triglyceride assay kit (ref 445850, Beckman Coutler, France) and a total cholesterol kit (ref 467825, Beckman Coutler, France), respectively, using a Synchron CX4 analyzer.

[9] = day 0, before treatment, NT-4/5 20 mg/kg s.c., Rosiglitazone 3 mg/kg p.o.
[10] = day 5, NT-4/5 20 mg/kg s.c., Rosiglitazone 3 mg/kg p.o.
[11] = day 5 vs day 0, NT-4/5 20 mg/kg s.c., Rosiglitazone 3 mg/kg p.o.
[12] = day 12, NT-4/5 20 mg/kg s.c., Rosiglitazone 3 mg/kg p.o.
[13] = day 12 vs day 0, NT-4/5 20 mg/kg s.c., Rosiglitazone 3 mg/kg p.o.
[14] = day 19, NT-4/5 20 mg/kg s.c., Rosiglitazone 3 mg/kg p.o.
[15] = day 19 vs day 0, NT-4/5 20 mg/kg s.c., Rosiglitazone 3 mg/kg p.o.
[16] = day 26, NT-4/5 20 mg/kg s.c., Rosiglitazone 3 mg/kg p.o.
[17] = day 26 vs day 0, NT-4/5 20 mg/kg s.c., Rosiglitazone 3 mg/kg p.o.

B1: NT-4/5: mature human neurotrophin-4/5 (SEQ ID NO:1), obtained from Genentech or produced in E. coli (protein, listed as Homo sapiens)
chain: GVSETAPASRRGELAVCDAVSGWVTDRRTAVDLRGREVEVLGEVPAAGGSPLRQYFFETRCKADNAEEGGPGAGGGGCRGVDRRHWVSECKAKQSYVRALTADAQGRVGWRWIRIDTACVCTLLSRTGRA
effect on blood level of NEFA (db/db mice [1]; 20 mg/kg s.c.): did not seem to have affected the blood level of NEFA significantly
NEFA levels T0 (db/db mice [1]; [9]): 0.788 mM
NEFA levels T5 (db/db mice [1]; [10]): 0.780 mM
NEFA % effect T5-T0 (db/db mice [1]; [11]): −0.1%
NEFA levels T12 (db/db mice [1]; [12]): 0.679 mM
NEFA % effect T12-T0 (db/db mice [1]; [13]): −8.5%
NEFA levels T19 (db/db mice [1]; [14]): 0.521 mM
NEFA % effect T19-T0 (db/db mice [1]; [15]): −30.4%
NEFA levels T26 (db/db mice [1]; [16]): 0.411 mM
NEFA % effect T26-T0 (db/db mice [1]; [17]): −44.5%
HbA1c level decrease at T26 (db/db mice [2]; T26 as compared to T0): 30.4%
HbA1c T0 (db/db mice [2]; [9]): 5.81%
HbA1c T12 (db/db mice [2]; [12]): 5.82%
HbA1c % effect T12-T0 (db/db mice [2]; [13]): −0.2%
HbA1c T26 (db/db mice [2]; [16]): 4.08%
HbA1c % effect T26-T0 (db/db mice [2]; [17]): −30.4%
body weight during treatment (db/db mice [3]; 20 mg/kg s.c.): gradually lost weight during the treatment
body weight, mean (db/db mice [3]; Day 0): 41.8 g
body weight expressed as % of baseline, mean (db/db mice [3]; Day 1): 97.8 % of baseline
body weight, mean (db/db mice [3]; Day 1): 40.8 g
body weight expressed as % of baseline, mean (db/db mice [3]; Day 2): 95.7 % of baseline
body weight, mean (db/db mice [3]; Day 2): 40.0 g
body weight expressed as % of baseline, mean (db/db mice [3]; Day 3): 94.6 % of baseline
body weight, mean (db/db mice [3]; Day 3): 39.5 g
body weight expressed as % of baseline, mean (db/db mice [3]; Day 4): 92.9 % of baseline
body weight, mean (db/db mice [3]; Day 4): 38.8 g
body weight expressed as % of baseline, mean (db/db mice [3]; Day 5): 91.6 % of baseline
body weight, mean (db/db mice [3]; Day 5): 38.3 g
body weight expressed as % of baseline, mean (db/db mice [3]; Day 6): 88.5 % of baseline
body weight, mean (db/db mice [3]; Day 6): 37.0 g
body weight expressed as % of baseline, mean (db/db mice [3]; Day 7): 87.4 % of baseline
body weight, mean (db/db mice [3]; Day 7): 36.5 g
body weight expressed as % of baseline, mean (db/db mice [3]; Day 8): 87.3 % of baseline
body weight, mean (db/db mice [3]; Day 8): 36.5 g
body weight expressed as % of baseline, mean (db/db mice [3]; Day 9): 86.5 % of baseline
body weight, mean (db/db mice [3]; Day 9): 36.6 g
body weight expressed as % of baseline, mean (db/db mice [3]; Day 10): 85.4 % of baseline
body weight, mean (db/db mice [3]; Day 10): 36.1 g
body weight expressed as % of baseline, mean (db/db mice [3]; Day 11): 84.1 % of baseline
body weight, mean (db/db mice [3]; Day 11): 35.6 g
body weight expressed as % of baseline, mean (db/db mice [3]; Day 12): 83.3 % of baseline
body weight, mean (db/db mice [3]; Day 12): 35.2 g
body weight expressed as % of baseline, mean (db/db mice [3]; Day 13): 80.8 % of baseline
body weight, mean (db/db mice [3]; Day 13): 34.2 g
body weight expressed as % of baseline, mean (db/db mice [3]; Day 14): 79.8 % of baseline
body weight, mean (db/db mice [3]; Day 14): 33.7 g
body weight expressed as % of baseline, mean (db/db mice [3]; Day 15): 80.1 % of baseline
body weight, mean (db/db mice [3]; Day 15): 33.9 g
body weight expressed as % of baseline, mean (db/db mice [3]; Day 18): 83.1 % of baseline
body weight, mean (db/db mice [3]; Day 18): 35.1 g
body weight expressed as % of baseline, mean (db/db mice [3]; Day 19): 84.4 % of baseline
body weight, mean (db/db mice [3]; Day 19): 35.7 g
body weight expressed as % of baseline, mean (db/db mice [3]; Day 20): 84.1 % of baseline
body weight, mean (db/db mice [3]; Day 20): 35.6 g
body weight expressed as % of baseline, mean (db/db mice [3]; Day 21): 85.6 % of baseline
body weight, mean (db/db mice [3]; Day 21): 36.2 g
body weight expressed as % of baseline, mean (db/db mice [3]; Day 22): 86.4 % of baseline
body weight, mean (db/db mice [3]; Day 22): 36.5 g
body weight expressed as % of baseline, mean (db/db mice [3]; Day 25): 91.7 % of baseline
body weight, mean (db/db mice [3]; Day 25): 38.8 g
body weight expressed as % of baseline, mean (db/db mice [3]; Day 26): 93.1 % of baseline
body weight, mean (db/db mice [3]; Day 26): 39.4 g
effect on AST and/or ALT levels, or AST/ALT ratios (db/db mice [4]; 20 mg/kg s.c.): did not have significant effect
ALT/AST ratio T0 (db/db mice [4]; [9]): 1.17
ALT/AST ratio T5 (db/db mice [4]; [10]): 0.73
ALT/AST ratio % effect T5-T0 (db/db mice [4]; [11]): −32.7%
ALT/AST ratio T12 (db/db mice [4]; [12]): 0.87
ALT/AST ratio % effect T12-T0 (db/db mice [4]; [13]): −26.6%
ALT/AST ratio T19 (db/db mice [4]; [14]): 0.67
ALT/AST ratio % effect T19-T0 (db/db mice [4]; [15]): −45.6%
ALT/AST ratio T26 (db/db mice [4]; [16]): 0.99
ALT/AST ratio % effect T26-T0 (db/db mice [4]; [17]): −17.6%
blood insulin level at T5 (db/db mice [5]; T5): 1.84
blood insulin level at T12 (db/db mice [5]; T12): 0.91
blood insulin level at T19 (db/db mice [5]; T19): 7.6
blood insulin level at T26 (db/db mice [5]; T26): 11.58
insulin levels T0 (db/db mice [5]; [9]): 7.04 nM
insulin levels T5 (db/db mice [5]; [10]): 1.84 nM
insulin % effect T5-T0 (db/db mice [5]; [11]): −72.0%
insulin levels T12 (db/db mice [5]; [12]): 0.91 nM
insulin % effect T12-T0 (db/db mice [5]; [13]): −84.5%
insulin levels T19 (db/db mice [5]; [14]): 7.60 nM
insulin % effect T19-T0 (db/db mice [5]; [15]): 17.1%
insulin levels T26 (db/db mice [5]; [16]): 11.58 nM
insulin % effect T26-T0 (db/db mice [5]; [17]): 73.1%
insulin level relative to normal level (db/db mice [5]; normal about 0.118±0.010 nM): not reduced to normal level
food intakes (db/db mice [6]; 20 mg/kg s.c.): dramatically suppressed
food intake, mean (db/db mice [6]; Day 1): 104.1 g/kg/day
food intake, mean (db/db mice [6]; Day 2): 56.9 g/kg/day
food intake, mean (db/db mice [6]; Day 3): 90.7 g/kg/day
food intake, mean (db/db mice [6]; Day 4): 68.6 g/kg/day
food intake, mean (db/db mice [6]; Day 5): 44.1 g/kg/day
food intake, mean (db/db mice [6]; Day 6): 38.5 g/kg/day
food intake, mean (db/db mice [6]; Day 7): 43.1 g/kg/day
food intake, mean (db/db mice [6]; Day 8): 63.4 g/kg/day
food intake, mean (db/db mice [6]; Day 9): 45.6 g/kg/day
food intake, mean (db/db mice [6]; Day 10): 51.8 g/kg/day
food intake, mean (db/db mice [6]; Day 11): 56.2 g/kg/day
food intake, mean (db/db mice [6]; Day 12): 62.6 g/kg/day
food intake, mean (db/db mice [6]; Day 13): 42.3 g/kg/day
food intake, mean (db/db mice [6]; Day 14): 76.3 g/kg/day
food intake, mean (db/db mice [6]; Day 15): 69.9 g/kg/day
food intake, mean (db/db mice [6]; Day 19): 78.0 g/kg/day
food intake, mean (db/db mice [6]; Day 20): 79.1 g/kg/day
food intake, mean (db/db mice [6]; Day 21): 123.9 g/kg/day
food intake, mean (db/db mice [6]; Day 22): 114.4 g/kg/day
food intake, mean (db/db mice [6]; Day 25): 120.6 g/kg/day
food intake, mean (db/db mice [6]; Day 26): 116.3 g/kg/day
triglycerides levels T0 (db/db mice [7]; [9]): 1.51 mM
triglycerides levels T5 (db/db mice [7]; [10]): 0.73 mM
triglycerides % effect T5-T0 (db/db mice [7]; [11]): −48.8%
triglycerides levels T12 (db/db mice [7]; [12]): 0.84 mM
triglycerides % effect T12-T0 (db/db mice [7]; [13]): −40.9%
triglycerides levels T19 (db/db mice [7]; [14]): 1.07 mM
triglycerides % effect T19-T0 (db/db mice [7]; [15]): −28.0%
triglycerides levels T26 (db/db mice [7]; [16]): 1.13 mM
triglycerides % effect T26-T0 (db/db mice [7]; [17]): −25.2%
blood triglyceride levels relative to normal level (db/db mice [7]; normal level 1.2±0.08 mM in C57BL/6J mice): reduced to below normal level
blood cholesterol level decrease (db/db mice [8]; 20 mg/kg s.c., not statistically significant): 20-30%
cholesterol levels T0 (db/db mice [8]; [9]): 3.42 mM
cholesterol levels T5 (db/db mice [8]; [10]): 2.85 mM
cholesterol % effect T5-T0 (db/db mice [8]; [11]): −16.4%
cholesterol levels T12 (db/db mice [8]; [12]): 2.66 mM
cholesterol % effect T12-T0 (db/db mice [8]; [13]): −23.7%
cholesterol levels T19 (db/db mice [8]; [14]): 2.40 mM
cholesterol % effect T19-T0 (db/db mice [8]; [15]): −31.7%
cholesterol levels T26 (db/db mice [8]; [16]): 2.67 mM
cholesterol % effect T26-T0 (db/db mice [8]; [17]): −23.5%
